In the supplement of paper PMC10567573:

B1: MLL5 (parent)
chain: HDDGYMICCDKCSVWQHIDCMGID

Variants of: B1
Assay: protein stability index of a GFP-peptide fusion (GPS, HEK-293T) (PSI 1-6); higher = more stable
Details: c terminus: a fixed tail appended
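Also: lentivirally expressed fusions sorted by FACS into six bins by GFP to DsRed ratio, PSI derived from sequencing read proportions per bin multiplied by bin number.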

| Variant | protein stability index |
| --- | --- |
| HDDGYMICCDKCSVQQHIDCMGID | 3.63 |
| HDDGYMICCDKCSVRQHIDCMGID | 3.18 |
| HDDGYMICCDKCSVSQHIDCMGID | 3.69 |
| HDDGYMICCDKCSVTQHIDCMGID | 3.7 |
| HDDGYMICCDKCSVVQHIDCMGID | 3.59 |
| HDDGYMICCDKCSVYQHIDCMGID | 2.73 |
| HDDGYMICCDKCSVWAHIDCMGID | 1.47 |
| HDDGYMICCDKCSVWCHIDCMGID | 2.4 |
| HDDGYMICCDKCSVWDHIDCMGID | 2.08 |
| HDDGYMICCDKCSVWEHIDCMGID | 2.6 |
| HDDGYMICCDKCSVWFHIDCMGID | 2.02 |
| HDDGYMICCDKCSVWGHIDCMGID | 2.71 |
| HDDGYMICCDKCSVWHHIDCMGID | 2.48 |
| HDDGYMICCDKCSVWIHIDCMGID | 1.77 |
| HDDGYMICCDKCSVWKHIDCMGID | 2.35 |
| HDDGYMICCDKCSVWLHIDCMGID | 2.75 |
| HDDGYMICCDKCSVWMHIDCMGID | 2.65 |
| HDDGYMICCDKCSVWNHIDCMGID | 2.42 |
| HDDGYMICCDKCSVWPHIDCMGID | 3.15 |
| HDDGYMICCDKCSVWRHIDCMGID | 2.48 |
| HDDGYMICCDKCSVWSHIDCMGID | 1.93 |
| HDDGYMICCDKCSVWTHIDCMGID | 1.69 |
| HDDGYMICCDKCSVWVHIDCMGID | 2.82 |
| HDDGYMICCDKCSVWWHIDCMGID | 1.61 |

| Variant | protein stability index |
| --- | --- |
| HDDGYMICCDKCSVWYHIDCMGID | 1.07 |
| HDDGYMICCDKCSVWQAIDCMGID | 2.16 |
| HDDGYMICCDKCSVWQCIDCMGID | 3.54 |
| HDDGYMICCDKCSVWQDIDCMGID | 2.5 |
| HDDGYMICCDKCSVWQEIDCMGID | 2.89 |
| HDDGYMICCDKCSVWQFIDCMGID | 1.65 |
| HDDGYMICCDKCSVWQGIDCMGID | 2.72 |
| HDDGYMICCDKCSVWQIIDCMGID | 1.34 |
| HDDGYMICCDKCSVWQKIDCMGID | 1.52 |
| HDDGYMICCDKCSVWQLIDCMGID | 1.98 |
| HDDGYMICCDKCSVWQMIDCMGID | 2.82 |
| HDDGYMICCDKCSVWQNIDCMGID | 2.32 |
| HDDGYMICCDKCSVWQPIDCMGID | 2.18 |
| HDDGYMICCDKCSVWQQIDCMGID | 2.48 |
| HDDGYMICCDKCSVWQRIDCMGID | 1.95 |
| HDDGYMICCDKCSVWQSIDCMGID | 2.48 |
| HDDGYMICCDKCSVWQTIDCMGID | 1.64 |
| HDDGYMICCDKCSVWQVIDCMGID | 2.8 |
| HDDGYMICCDKCSVWQYIDCMGID | 1.63 |
| HDDGYMICCDKCSVWQHADCMGID | 2.9 |
| HDDGYMICCDKCSVWQHCDCMGID | 3.93 |
| HDDGYMICCDKCSVWQHDDCMGID | 3.71 |
| HDDGYMICCDKCSVWQHEDCMGID | 3.5 |
| HDDGYMICCDKCSVWQHFDCMGID | 2.35 |

| Variant | protein stability index |
| --- | --- |
| HDDGYMICCDKCSVWQHGDCMGID | 3.5 |
| HDDGYMICCDKCSVWQHHDCMGID | 3.6 |
| HDDGYMICCDKCSVWQHKDCMGID | 3.36 |
| HDDGYMICCDKCSVWQHLDCMGID | 2.28 |
| HDDGYMICCDKCSVWQHMDCMGID | 3.14 |
| HDDGYMICCDKCSVWQHNDCMGID | 2.52 |
| HDDGYMICCDKCSVWQHPDCMGID | 2.94 |
| HDDGYMICCDKCSVWQHQDCMGID | 3.42 |
| HDDGYMICCDKCSVWQHRDCMGID | 3.32 |
| HDDGYMICCDKCSVWQHSDCMGID | 3.06 |
| HDDGYMICCDKCSVWQHTDCMGID | 2.44 |
| HDDGYMICCDKCSVWQHVDCMGID | 1.99 |
| HDDGYMICCDKCSVWQHWDCMGID | 2.38 |
| HDDGYMICCDKCSVWQHYDCMGID | 2.6 |
| HDDGYMICCDKCSVWQHIACMGID | 2.04 |
| HDDGYMICCDKCSVWQHICCMGID | 2.94 |
| HDDGYMICCDKCSVWQHIECMGID | 2.57 |
| HDDGYMICCDKCSVWQHIFCMGID | 1.74 |
| HDDGYMICCDKCSVWQHIGCMGID | 2.84 |
| HDDGYMICCDKCSVWQHIHCMGID | 2.2 |
| HDDGYMICCDKCSVWQHIICMGID | 2.25 |
| HDDGYMICCDKCSVWQHIKCMGID | 2.52 |
| HDDGYMICCDKCSVWQHILCMGID | 2.14 |
| HDDGYMICCDKCSVWQHIMCMGID | 2 |

| Variant | protein stability index |
| --- | --- |
| HDDGYMICCDKCSVWQHINCMGID | 1.91 |
| HDDGYMICCDKCSVWQHIPCMGID | 2.33 |
| HDDGYMICCDKCSVWQHIQCMGID | 2.62 |
| HDDGYMICCDKCSVWQHIRCMGID | 2.43 |
| HDDGYMICCDKCSVWQHISCMGID | 1.78 |
| HDDGYMICCDKCSVWQHITCMGID | 2.33 |
| HDDGYMICCDKCSVWQHIVCMGID | 3.42 |
| HDDGYMICCDKCSVWQHIWCMGID | 1.98 |
| HDDGYMICCDKCSVWQHIYCMGID | 1.72 |
| HDDGYMICCDKCSVWQHIDAMGID | 2.5 |
| HDDGYMICCDKCSVWQHIDDMGID | 2.58 |
| HDDGYMICCDKCSVWQHIDEMGID | 2.29 |
| HDDGYMICCDKCSVWQHIDFMGID | 1.28 |
| HDDGYMICCDKCSVWQHIDGMGID | 2.19 |
| HDDGYMICCDKCSVWQHIDHMGID | 2.12 |
| HDDGYMICCDKCSVWQHIDIMGID | 2.08 |
| HDDGYMICCDKCSVWQHIDKMGID | 2.06 |
| HDDGYMICCDKCSVWQHIDLMGID | 1.86 |
| HDDGYMICCDKCSVWQHIDMMGID | 1.79 |
| HDDGYMICCDKCSVWQHIDNMGID | 2.81 |
| HDDGYMICCDKCSVWQHIDPMGID | 2.31 |
| HDDGYMICCDKCSVWQHIDQMGID | 2.02 |
